Read-outs that look alike come from different tables or passages of the source.
Assays:
[1] = molecular target: T1, hPD-1-his (human, UniProt Q15116 25-167); assay: ELISA, hPD-1-his on anti-his
T1 construct: domain: IgV domain; monomer in solution; biotin-labelled where captured by streptavidin; also called biotin-hPD-1-his

[2] = molecular target: T2, human PD-1 expressed on cells (human, UniProt Q15116 25-288); assay: cell-based or functional assay
[3] = molecular target: T3, hPD-1-Fc (human, UniProt Q15116 25-167); assay: ELISA, hPD1-Fc coated
T3 construct: domain: IgV domain; also called human PD-1-Fc; not shown: human IgG1 Fc

[4] = molecular target: T2, human PD-1 expressed on cells; assay: cell-based or functional assay; remark: listed apart in the source
[5] = molecular target: T3, hPD-1-Fc; assay: SPR Biacore T200, PD-1-Fc immobilised
[6] = molecular target: T3, hPD-1-Fc; assay: ELISA, hPD-1-Fc coated
[7] = molecular target: T2, human PD-1 expressed on cells; assay: flow cytometry, SEB-activated PBMC donor three
[8] = molecular target: T1, hPD-1-his; assay: ELISA, biotin-hPD-1-his on streptavidin
[9] = molecular target: T2, human PD-1 expressed on cells; assay: flow cytometry, SEB-activated PBMC donor one
[10] = molecular target: T1, hPD-1-his; assay: SPR Biacore T200, PD-1-his immobilised
[11] = molecular target: T2, human PD-1 expressed on cells; assay: flow cytometry, hPD1-293 cells
[12] = molecular target: T3, hPD-1-Fc; assay: blocking ELISA, hPD-1-Fc to hPD-L1-Fc
[13] = molecular target: T2, human PD-1 expressed on cells; assay: flow cytometry, hPD1-293 cells; remark: listed apart in the source
[14] = molecular target: T3, hPD-1-Fc; assay: blocking ELISA, hPD-1-Fc to hPD-L1-Fc; remark: listed apart in the source
[15] = molecular target: T2, human PD-1 expressed on cells; assay: flow cytometry, hPD1-Jurkat cells
[16] = molecular target: T1, hPD-1-his; assay: ELISA, captured hPD-1-his

T1 sequence (Q15116 other isoform, or with tags, fused parts or gaps limits assumed): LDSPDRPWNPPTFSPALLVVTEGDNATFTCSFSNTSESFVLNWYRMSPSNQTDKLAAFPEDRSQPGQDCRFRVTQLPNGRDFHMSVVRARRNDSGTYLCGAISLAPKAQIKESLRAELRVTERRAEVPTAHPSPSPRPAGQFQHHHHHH
T2 sequence (Q15116 25-288): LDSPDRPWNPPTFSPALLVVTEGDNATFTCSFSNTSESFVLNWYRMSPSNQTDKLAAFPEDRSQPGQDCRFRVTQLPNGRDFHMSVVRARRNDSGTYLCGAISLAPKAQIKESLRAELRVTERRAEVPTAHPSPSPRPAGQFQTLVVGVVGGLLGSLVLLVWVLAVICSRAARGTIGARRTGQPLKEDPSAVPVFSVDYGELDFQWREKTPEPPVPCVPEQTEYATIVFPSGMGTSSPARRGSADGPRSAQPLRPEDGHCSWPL
T3 sequence (Q15116 25-167 limits assumed): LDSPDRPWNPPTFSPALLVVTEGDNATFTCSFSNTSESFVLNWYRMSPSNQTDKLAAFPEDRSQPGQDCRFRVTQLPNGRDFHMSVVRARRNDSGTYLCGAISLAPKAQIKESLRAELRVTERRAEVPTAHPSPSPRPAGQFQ

| Binder | EC50, Promega blockade bioassay [2] | Fold induction [2] | EC 50, Promega PD-1/PD-L1 blockade bioassay [4] | Fold of induction [4] | Kd [5] | EC50 [6] | OD at 10 nM [6] | EC50 [7] | MFI at 100 nM [7] | EC50 [9] | MFI at 100 nM [9] | Kd [10] | EC50 [11] | EC50 [13] | MFI at 68 nM [13] | IC50 [14] | Inhibition % (3.3 nM) [14] | Inhibition % (30 nM) [14] | EC50 [16] | OD at 10 nM [16] | other results |
| --- | --- | --- | --- | --- | --- | --- | --- | --- | --- | --- | --- | --- | --- | --- | --- | --- | --- | --- | --- | --- | --- |
| 23H9 (antibody, human IgG1, V domains shown) VH: QVQLVQSGAEVKKPGSSVKVSCKASGGTFSSSVISWVRQAPGQGLEWMGGIIPIFGTANYAQKFQGRVTITADESTSTAYMELSSLRSEDTAVYYCAREGLGCSGGSCYSGYYYGMDVWGQGTTVTVSS VL: not shown | 0.551 µg/mL | 5.58 fold | 0.688 µg/mL | 4.42 fold | 0.928 nM | 0.151 nM | 1.75 OD450 | 0.829 nM | 109 MFI | 0.993 nM | 26.2 MFI | 4.91 nM | 0.33 nM | 2.53 nM | 38.8 MFI | 2.04 nM | 82.5% | 94.7% | 0.35 nM | 1.25 OD450 | EC50 [1]: 0.238 nM; OD450 at 10 nM [1]: 0.406 OD450; EC50 [3]: 0.121 nM; OD450 at 10 nM [3]: 0.916 OD450; EC50 [8]: 0.18 nM; OD450 at 10 nM [8]: 0.89 OD450; MFI at 5 nM [11]: 43 MFI; IC50 [12]: 1.27 nM; Inhibition % at 5.6 nM [12]: 88.6%; Inhibition % at 50 nM [12]: 90.4%; EC50 [15]: 0.42 nM; MFI at 5 nM [15]: 120 MFI |
| 24H9 (antibody, human IgG1, V domains shown) VH: EVQLLESGGGLVQPGGSLRLSCAASGFTFSSYWMSWVRQAPGKGLEWVSAISGSGGSTYYADSVKGRFTISRDNSKNTLYLQMNSLRAEDTAVYYCASSPLQWVDVWGQGTTVTVSS VL: DIQMTQSPSSLSASVGDRVTITCRASQGISSWLAWYQQKPGKAPKLLIYSASSLQSGVPSRFSGSGSGTDFTLTISSLQPEDFATYYCQQANSFPFTFGPGTKVDIK | 0.855 µg/mL | 4.97 fold | 0.823 µg/mL | 3.96 fold | 1.46 nM | 0.128 nM | 1.84 OD450 | 0.913 nM | 70.5 MFI | 1.37 nM | 18.7 MFI | 13.9 nM | 2.69 nM | 58.7 nM | 59 MFI | 2.28 nM | 70% | 92.9% | 1.31 nM | 0.69 OD450 | MFI at 5 nM [11]: 42.8 MFI; EC50 [15]: 0.77 nM; MFI at 5 nM [15]: 80.6 MFI |
| 23A8 (antibody, human IgG1, V domains shown) VH: EVQLLESGGGLVQPGGSLRLSCAASGFTFSSSAMHWVRQAPGKGLEWVSGISGSGSSTYYADSVKGRFTISRDNSKNTLYLQMNSLRAEDTAVYYCARDNNYYYYMDVWGKGTTVTVSS VL: DIQMTQSPSSLSASVGDRVTITCRASQSIGTWLAWYQQKPGKAPKLLIYAASTLRSGVPSRFSGSGSGTDFTLTISSLQPEDFATYYCQQSYSTPYTFGQGTKLEIK |  |  | 4.73 µg/mL | 2.81 fold |  | 0.135 nM | 1.74 OD450 | 1.89 nM | 80.3 MFI | 1.51 nM | 19.9 MFI |  |  | 0.299 nM | 105 MFI | 1.85 nM | 80.5% | 93.1% | 0.523 nM | 1.15 OD450 |  |
| 19B6 (antibody, V domains shown) VH: QVQLVQSGAEVKKPGASVKVSCKASGYTFTGYYMHWVRQAPGQGLEWMGIINPSGGSTSYAQKFQGRVTMTRDTSTSTVYMELSSLRSEDTAVYYCAKTAGYDWLPSGLGMDVWGQGTTVTVSS VL: DIQMTQSPSSLSASVGDRVTITCRASQSINSWLAWYQQKPGKAPKLLIYYASSLQSGVPSRFSGSGSGTDFTLTISSLQPEDFATYYCQQGYSVPLSFGQGTKLEIK |  |  | 2.13 µg/mL | 3.04 fold |  | 0.168 nM | 1.81 OD450 | 10.7 nM | 51.2 MFI | 13.6 nM | 13.7 MFI |  |  |  | 20.8 MFI | 2.69 nM | 51.9% | 85.9% | > 100 nM | 0.3 OD450 |  |
